Patent publication US20250171562A1

B1: CIgG4E4A1(G4S)3 (Fc fusion)
chain 1: GPPCPPCPAPEFLGGPSVFLFPPKPKDTLMISRTPEVTCVVVDVSQEDPEVQFNWYVDGVEVHNAKTKPREEQFNSTYRVVSVLTVLHQDWLNGKEYKCKVSNKGLPSSIEKTISKAKGQPREPQVYTLPPCQEEMTKNQVSLWCLVKGFYPSDIAVEWESNGQPENNYKTTPPVLDSDGSFFLYSRLTVDKSRWQEGNVFSCSVMHEALHNHYTQKSLSLSLGKGGGGSGGGGSGGGGSDVQLQESGGGLVQPGGSLRLSCAASGFRFSNYAMRWYRQAPGKEREFVARISSTGFITRYTASVRDRFTISRDNDKNMMYLQLNKLTPQDTAHYYCNAESTDYWGQGTQVTVS
chain 2: GPPCPPCPAPEFLGGPSVFLFPPKPKDTLMISRTPEVTCVVVDVSQEDPEVQFNWYVDGVEVHNAKTKPREEQFNSTYRVVSVLTVLHQDWLNGKEYKCKVSNKGLPSSIEKTISKAKGQPREPQVCTLPPSQEEMTKNQVSLSCAVKGFYPSDIAVEWESNGQPENNYKTTPPVLDSDGSFFLVSRLTVDKSRWQEGNVFSCSVMHEALHNHYTQKSLSLSLGKGGGGSGGGGSGGGGSEVQLLESGGGLVQPGGSLRLSCAASGFTFGNYDMAWVRQAPGKRPEWVSSIDTGGDITHYADSVKGRFTISRDNAKNTLYLQMNSLRPEDTAVYWCATDEEYALGPNEFDYYGQGTLVTVSS
B2: NIgG4F1A1(RS) (Fc fusion)
chain 1: DVQLQESGGGLVQAGGSLKLSCAASGGSLSRYDMGWFRQAPGKEREFVARISWSGTTKYYADAVKGRFAISRDNAKNTVYLQMNSLKPEDTAVYYCAAAFYGNRGYYDVNAYTSSGQGTQVTVSRSGPPCPPCPAPEFLGGPSVFLFPPKPKDTLMISRTPEVTCVVVDVSQEDPEVQFNWYVDGVEVHNAKTKPREEQFNSTYRVVSVLTVLHQDWLNGKEYKCKVSNKGLPSSIEKTISKAKGQPREPQVYTLPPCQEEMTKNQVSLWCLVKGFYPSDIAVEWESNGQPENNYKTTPPVLDSDGSFFLYSRLTVDKSRWQEGNVFSCSVMHEALHNHYTQKSLSLSLGK
chain 2: EVQLLESGGGLVQPGGSLRLSCAASGFTFGNYDMAWVRQAPGKRPEWVSSIDTGGDITHYADSVKGRFTISRDNAKNTLYLQMNSLRPEDTAVYWCATDEEYALGPNEFDYYGQGTLVTVSSRSGPPCPPCPAPEFLGGPSVFLFPPKPKDTLMISRTPEVTCVVVDVSQEDPEVQFNWYVDGVEVHNAKTKPREEQFNSTYRVVSVLTVLHQDWLNGKEYKCKVSNKGLPSSIEKTISKAKGQPREPQVCTLPPSQEEMTKNQVSLSCAVKGFYPSDIAVEWESNGQPENNYKTTPPVLDSDGSFFLVSRLTVDKSRWQEGNVFSCSVMHEALHNHYTQKSLSLSLGK
B3: NIgG4F1A1(G4S)1 (Fc fusion)
chain 1: DVQLQESGGGLVQAGGSLKLSCAASGGSLSRYDMGWFRQAPGKEREFVARISWSGTTKYYADAVKGRFAISRDNAKNTVYLQMNSLKPEDTAVYYCAAAFYGNRGYYDVNAYTSSGQGTQVTVSGGGGSGPPCPPCPAPEFLGGPSVFLFPPKPKDTLMISRTPEVTCVVVDVSQEDPEVQFNWYVDGVEVHNAKTKPREEQFNSTYRVVSVLTVLHQDWLNGKEYKCKVSNKGLPSSIEKTISKAKGQPREPQVYTLPPCQEEMTKNQVSLWCLVKGFYPSDIAVEWESNGQPENNYKTTPPVLDSDGSFFLYSRLTVDKSRWQEGNVFSCSVMHEALHNHYTQKSLSLSLGK
chain 2: EVQLLESGGGLVQPGGSLRLSCAASGFTFGNYDMAWVRQAPGKRPEWVSSIDTGGDITHYADSVKGRFTISRDNAKNTLYLQMNSLRPEDTAVYWCATDEEYALGPNEFDYYGQGTLVTVSSGGGGSGPPCPPCPAPEFLGGPSVFLFPPKPKDTLMISRTPEVTCVVVDVSQEDPEVQFNWYVDGVEVHNAKTKPREEQFNSTYRVVSVLTVLHQDWLNGKEYKCKVSNKGLPSSIEKTISKAKGQPREPQVCTLPPSQEEMTKNQVSLSCAVKGFYPSDIAVEWESNGQPENNYKTTPPVLDSDGSFFLVSRLTVDKSRWQEGNVFSCSVMHEALHNHYTQKSLSLSLGK
B4: NIgG4F1A1(G4S)2 (Fc fusion)
chain 1: DVQLQESGGGLVQAGGSLKLSCAASGGSLSRYDMGWFRQAPGKEREFVARISWSGTTKYYADAVKGRFAISRDNAKNTVYLQMNSLKPEDTAVYYCAAAFYGNRGYYDVNAYTSSGQGTQVTVSGGGGSGGGGSGPPCPPCPAPEFLGGPSVFLFPPKPKDTLMISRTPEVTCVVVDVSQEDPEVQFNWYVDGVEVHNAKTKPREEQFNSTYRVVSVLTVLHQDWLNGKEYKCKVSNKGLPSSIEKTISKAKGQPREPQVYTLPPCQEEMTKNQVSLWCLVKGFYPSDIAVEWESNGQPENNYKTTPPVLDSDGSFFLYSRLTVDKSRWQEGNVFSCSVMHEALHNHYTQKSLSLSLGK
chain 2: EVQLLESGGGLVQPGGSLRLSCAASGFTFGNYDMAWVRQAPGKRPEWVSSIDTGGDITHYADSVKGRFTISRDNAKNTLYLQMNSLRPEDTAVYWCATDEEYALGPNEFDYYGQGTLVTVSSGGGGSGGGGSGPPCPPCPAPEFLGGPSVFLFPPKPKDTLMISRTPEVTCVVVDVSQEDPEVQFNWYVDGVEVHNAKTKPREEQFNSTYRVVSVLTVLHQDWLNGKEYKCKVSNKGLPSSIEKTISKAKGQPREPQVCTLPPSQEEMTKNQVSLSCAVKGFYPSDIAVEWESNGQPENNYKTTPPVLDSDGSFFLVSRLTVDKSRWQEGNVFSCSVMHEALHNHYTQKSLSLSLGK
B5: NIgG4F1A1(G4S)3 (Fc fusion)
chain 1: DVQLQESGGGLVQAGGSLKLSCAASGGSLSRYDMGWFRQAPGKEREFVARISWSGTTKYYADAVKGRFAISRDNAKNTVYLQMNSLKPEDTAVYYCAAAFYGNRGYYDVNAYTSSGQGTQVTVSGGGGSGGGGSGGGGSGPPCPPCPAPEFLGGPSVFLFPPKPKDTLMISRTPEVTCVVVDVSQEDPEVQFNWYVDGVEVHNAKTKPREEQFNSTYRVVSVLTVLHQDWLNGKEYKCKVSNKGLPSSIEKTISKAKGQPREPQVYTLPPCQEEMTKNQVSLWCLVKGFYPSDIAVEWESNGQPENNYKTTPPVLDSDGSFFLYSRLTVDKSRWQEGNVFSCSVMHEALHNHYTQKSLSLSLGK
chain 2: EVQLLESGGGLVQPGGSLRLSCAASGFTFGNYDMAWVRQAPGKRPEWVSSIDTGGDITHYADSVKGRFTISRDNAKNTLYLQMNSLRPEDTAVYWCATDEEYALGPNEFDYYGQGTLVTVSSGGGGSGGGGSGGGGSGPPCPPCPAPEFLGGPSVFLFPPKPKDTLMISRTPEVTCVVVDVSQEDPEVQFNWYVDGVEVHNAKTKPREEQFNSTYRVVSVLTVLHQDWLNGKEYKCKVSNKGLPSSIEKTISKAKGQPREPQVCTLPPSQEEMTKNQVSLSCAVKGFYPSDIAVEWESNGQPENNYKTTPPVLDSDGSFFLVSRLTVDKSRWQEGNVFSCSVMHEALHNHYTQKSLSLSLGK
B6: CIgG4F1A1(RS) (Fc fusion)
chain 1: GPPCPPCPAPEFLGGPSVFLFPPKPKDTLMISRTPEVTCVVVDVSQEDPEVQFNWYVDGVEVHNAKTKPREEQFNSTYRVVSVLTVLHQDWLNGKEYKCKVSNKGLPSSIEKTISKAKGQPREPQVYTLPPCQEEMTKNQVSLWCLVKGFYPSDIAVEWESNGQPENNYKTTPPVLDSDGSFFLYSRLTVDKSRWQEGNVFSCSVMHEALHNHYTQKSLSLSLGKRSDVQLQESGGGLVQAGGSLKLSCAASGGSLSRYDMGWFRQAPGKEREFVARISWSGTTKYYADAVKGRFAISRDNAKNTVYLQMNSLKPEDTAVYYCAAAFYGNRGYYDVNAYTSSGQGTQVTVS
chain 2: GPPCPPCPAPEFLGGPSVFLFPPKPKDTLMISRTPEVTCVVVDVSQEDPEVQFNWYVDGVEVHNAKTKPREEQFNSTYRVVSVLTVLHQDWLNGKEYKCKVSNKGLPSSIEKTISKAKGQPREPQVCTLPPSQEEMTKNQVSLSCAVKGFYPSDIAVEWESNGQPENNYKTTPPVLDSDGSFFLVSRLTVDKSRWQEGNVFSCSVMHEALHNHYTQKSLSLSLGKRSEVQLLESGGGLVQPGGSLRLSCAASGFTFGNYDMAWVRQAPGKRPEWVSSIDTGGDITHYADSVKGRFTISRDNAKNTLYLQMNSLRPEDTAVYWCATDEEYALGPNEFDYYGQGTLVTVSS
B7: CIgG4F1A1(G4S)1 (Fc fusion)
chain 1: GPPCPPCPAPEFLGGPSVFLFPPKPKDTLMISRTPEVTCVVVDVSQEDPEVQFNWYVDGVEVHNAKTKPREEQFNSTYRVVSVLTVLHQDWLNGKEYKCKVSNKGLPSSIEKTISKAKGQPREPQVYTLPPCQEEMTKNQVSLWCLVKGFYPSDIAVEWESNGQPENNYKTTPPVLDSDGSFFLYSRLTVDKSRWQEGNVFSCSVMHEALHNHYTQKSLSLSLGKGGGGSDVQLQESGGGLVQAGGSLKLSCAASGGSLSRYDMGWFRQAPGKEREFVARISWSGTTKYYADAVKGRFAISRDNAKNTVYLQMNSLKPEDTAVYYCAAAFYGNRGYYDVNAYTSSGQGTQVTVS
chain 2: GPPCPPCPAPEFLGGPSVFLFPPKPKDTLMISRTPEVTCVVVDVSQEDPEVQFNWYVDGVEVHNAKTKPREEQFNSTYRVVSVLTVLHQDWLNGKEYKCKVSNKGLPSSIEKTISKAKGQPREPQVCTLPPSQEEMTKNQVSLSCAVKGFYPSDIAVEWESNGQPENNYKTTPPVLDSDGSFFLVSRLTVDKSRWQEGNVFSCSVMHEALHNHYTQKSLSLSLGKGGGGSEVQLLESGGGLVQPGGSLRLSCAASGFTFGNYDMAWVRQAPGKRPEWVSSIDTGGDITHYADSVKGRFTISRDNAKNTLYLQMNSLRPEDTAVYWCATDEEYALGPNEFDYYGQGTLVTVSS
B8: CIgG4F1A1(G4S)2 (Fc fusion)
chain 1: GPPCPPCPAPEFLGGPSVFLFPPKPKDTLMISRTPEVTCVVVDVSQEDPEVQFNWYVDGVEVHNAKTKPREEQFNSTYRVVSVLTVLHQDWLNGKEYKCKVSNKGLPSSIEKTISKAKGQPREPQVYTLPPCQEEMTKNQVSLWCLVKGFYPSDIAVEWESNGQPENNYKTTPPVLDSDGSFFLYSRLTVDKSRWQEGNVFSCSVMHEALHNHYTQKSLSLSLGKGGGGSGGGGSDVQLQESGGGLVQAGGSLKLSCAASGGSLSRYDMGWFRQAPGKEREFVARISWSGTTKYYADAVKGRFAISRDNAKNTVYLQMNSLKPEDTAVYYCAAAFYGNRGYYDVNAYTSSGQGTQVTVS
chain 2: GPPCPPCPAPEFLGGPSVFLFPPKPKDTLMISRTPEVTCVVVDVSQEDPEVQFNWYVDGVEVHNAKTKPREEQFNSTYRVVSVLTVLHQDWLNGKEYKCKVSNKGLPSSIEKTISKAKGQPREPQVCTLPPSQEEMTKNQVSLSCAVKGFYPSDIAVEWESNGQPENNYKTTPPVLDSDGSFFLVSRLTVDKSRWQEGNVFSCSVMHEALHNHYTQKSLSLSLGKGGGGSGGGGSEVQLLESGGGLVQPGGSLRLSCAASGFTFGNYDMAWVRQAPGKRPEWVSSIDTGGDITHYADSVKGRFTISRDNAKNTLYLQMNSLRPEDTAVYWCATDEEYALGPNEFDYYGQGTLVTVSS

Each binder was assayed against mixture of three Der p 2 specific recombinant human IgE clones H10, H12, P4E (human) (UniProt P01854) (assay: RBL-SX38 IgE displacement, FACS).
mixture of three Der p 2 specific recombinant human IgE clones H10, H12, P4E (human), sequence (P01854 other isoform, or with tags, fused parts or gaps): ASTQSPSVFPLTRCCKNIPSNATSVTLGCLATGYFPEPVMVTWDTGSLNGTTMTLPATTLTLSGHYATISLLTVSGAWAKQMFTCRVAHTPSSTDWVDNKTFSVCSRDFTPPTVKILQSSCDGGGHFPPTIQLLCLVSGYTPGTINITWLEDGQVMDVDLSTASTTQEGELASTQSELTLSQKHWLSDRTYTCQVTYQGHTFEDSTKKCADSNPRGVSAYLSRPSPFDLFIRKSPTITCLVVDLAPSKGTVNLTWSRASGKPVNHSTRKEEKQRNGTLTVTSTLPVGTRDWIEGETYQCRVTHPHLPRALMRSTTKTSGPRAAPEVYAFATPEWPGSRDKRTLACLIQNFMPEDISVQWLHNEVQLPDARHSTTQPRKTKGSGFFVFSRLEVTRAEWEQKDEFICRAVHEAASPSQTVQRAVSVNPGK
B1 gave an EC50 of 31.6 nM and a Max effect/effect 1 µM of 98%.
Work on B2 yielded an EC50 of 3.5 nM and a Max effect/effect 1 µM of 88%.
B3 showed an EC50 of 2.6 nM and a Max effect/effect 1 µM of 92%.
B4 was tested, and the EC50 was 2.1 nM and the Max effect/effect 1 µM was 95%.
B5 was tested, and the EC50 was 35.5 nM and the Max effect/effect 1 µM was 92%.
Binder B6 has a Max effect/effect 1 µM of 0%.
With B7 the Max effect/effect 1 µM was 8%.
With B8 the Max effect/effect 1 µM was 18%.
